Source: the supplement of paper PMC6755084

B1: F1*; the commonest letter at each place (parent)
chain: GAGACCGCAACTGAAAAGTTGTTATCACTTGTCGTAAGACACTTTGGATGGGTTGAAGTTCTGCACGTAGAAGCAAAAGGC

Variants of: B1
Assay: fraction ligated after 30 min (ligated reads / total reads); higher = more ligase activity
Details: with F1*sub RNA substrate (template-directed ligation), 42 °C
How it was run: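 Ribozyme variants were transcribed with T7 from PCR-amplified oligo-pool templates and gel-purified. Ligated and unligated bands, separated on gel, were reverse transcribed with barcoded primers and sequenced on a MiSeq, with core bases filtered at quality ≥20. Fraction ligated per variant was computed as ligated reads divided by total reads.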
T35A T43C was tested, and the fraction ligated was 0.794. For T35A T43G, the fraction ligated was 0.807. Work on A36G A39G yielded a fraction ligated of 0.862. Variant A36G A39C has a fraction ligated of 0.791. A36G A39T was tested, and the fraction ligated was 0.815. A36G A57C was tested, and the fraction ligated was 0.863. A36G A57G showed a fraction ligated of 0.88. For A36G A57T, the fraction ligated was 0.878. T35A A56G was tested, and the fraction ligated was 0.799. T35A A56C gave a fraction ligated of 0.802. T35A A56T was tested, and the fraction ligated was 0.82. In the case of G34T T44G, the fraction ligated is reported as 0.842. Variant G34T T44C has a fraction ligated of 0.811. With G34T T44A the fraction ligated was 0.792. Work on T35G A56C yielded a fraction ligated of 0.802. In the case of T35G A56T, the fraction ligated is reported as 0.802. For T35G A56G, the fraction ligated was 0.791. Variant T35C A48T has a fraction ligated of 0.792. T35C A48G was tested, and the fraction ligated was 0.805. Variant T35C A48C has a fraction ligated of 0.766. A36C A57T was tested, and the fraction ligated was 0.844. Variant A36C A57G has a fraction ligated of 0.816. With A36C A57C the fraction ligated was 0.813. T35C G38C showed a fraction ligated of 0.815. In the case of T35C G38A, the fraction ligated is reported as 0.856. Work on T35C G38T yielded a fraction ligated of 0.821. A36C C40A showed a fraction ligated of 0.804. Variant A36C C40T has a fraction ligated of 0.818. Work on A36C C40G yielded a fraction ligated of 0.818. A36G T43C showed a fraction ligated of 0.81. In the case of A36G T43G, the fraction ligated is reported as 0.776. A36G T43A showed a fraction ligated of 0.823. A36C T49C was tested, and the fraction ligated was 0.712. Work on A36C T49G yielded a fraction ligated of 0.798. A36C T49A gave a fraction ligated of 0.767. A36C T45A showed a fraction ligated of 0.771. A36C T45G was tested, and the fraction ligated was 0.362. A36C T45C gave a fraction ligated of 0.753. A36C T43G showed a fraction ligated of 0.797. Work on A36C T43C yielded a fraction ligated of 0.806. Work on A36C T43A yielded a fraction ligated of 0.82. T35A A37T gave a fraction ligated of 0.86. T35A A37C showed a fraction ligated of 0.872. Variant T35A A37G has a fraction ligated of 0.844. A36C A37T was tested, and the fraction ligated was 0.837. A36C A37C was tested, and the fraction ligated was 0.821. With A36C A37G the fraction ligated was 0.825. For T35G C42G, the fraction ligated was 0.857. Variant T35G C42A has a fraction ligated of 0.846. For T35G C42T, the fraction ligated was 0.838. For T35A G55T, the fraction ligated was 0.834. In the case of T35A G55C, the fraction ligated is reported as 0.819. With T35A G55A the fraction ligated was 0.868. A36T G47C was tested, and the fraction ligated was 0.233. A36T G47T showed a fraction ligated of 0.383. For A36T G47A, the fraction ligated was 0.8. A36C G46T gave a fraction ligated of 0.778. With A36C G46C the fraction ligated was 0.784. A36C G46A was tested, and the fraction ligated was 0.793. A36G G38T was tested, and the fraction ligated was 0.806. For A36G G38C, the fraction ligated was 0.846. Work on A36G G38A yielded a fraction ligated of 0.828. For A36T G46A, the fraction ligated was 0.818. For A36T G46C, the fraction ligated was 0.787. A36T G46T gave a fraction ligated of 0.791. For A36G T44C, the fraction ligated was 0.85. For A36G T44A, the fraction ligated was 0.848. For A36G T44G, the fraction ligated was 0.856. With T35G G46A the fraction ligated was 0.809. With T35G G46T the fraction ligated was 0.784. For T35G G46C, the fraction ligated was 0.803. For A36C G38A, the fraction ligated was 0.846. With A36C G38C the fraction ligated was 0.838. Work on A36C G38T yielded a fraction ligated of 0.838. A36C A41T gave a fraction ligated of 0.814. A36C A41C gave a fraction ligated of 0.782. In the case of A36C A41G, the fraction ligated is reported as 0.741. Work on T35A A36T yielded a fraction ligated of 0.85. In the case of T35A A36G, the fraction ligated is reported as 0.857. Work on T35A A36C yielded a fraction ligated of 0.865. Work on A36G C40A yielded a fraction ligated of 0.829. In the case of A36G C40T, the fraction ligated is reported as 0.861. In the case of A36G C40G, the fraction ligated is reported as 0.841. For A36C, the fraction ligated was 0.833. With A36T the fraction ligated was 0.843. Work on A36G yielded a fraction ligated of 0.862. A36T T43A showed a fraction ligated of 0.841. Work on A36T T43C yielded a fraction ligated of 0.814. A36T T43G showed a fraction ligated of 0.812. Variant T35G A36T has a fraction ligated of 0.851. In the case of T35G A36C, the fraction ligated is reported as 0.824. For T35G A36G, the fraction ligated was 0.845. With T35A A41T the fraction ligated was 0.831. T35A A41C gave a fraction ligated of 0.792. Variant T35A A41G has a fraction ligated of 0.811. T35A G46C gave a fraction ligated of 0.799. T35A G46T gave a fraction ligated of 0.783. In the case of T35A G46A, the fraction ligated is reported as 0.837. T35C A39C was tested, and the fraction ligated was 0.824. Work on T35C A39T yielded a fraction ligated of 0.825. For T35C A39G, the fraction ligated was 0.833. In the case of A36C A56G, the fraction ligated is reported as 0.794. A36C A56T gave a fraction ligated of 0.804. For A36C A56C, the fraction ligated was 0.804. Work on T35C T44G yielded a fraction ligated of 0.823. Work on T35C T44A yielded a fraction ligated of 0.851. Variant T35C T44C has a fraction ligated of 0.841. For T35C A56T, the fraction ligated was 0.796. For T35C A56G, the fraction ligated was 0.782. T35C A56C showed a fraction ligated of 0.759. T35C T45C was tested, and the fraction ligated was 0.783. Variant T35C T45G has a fraction ligated of 0.399. T35C T45A was tested, and the fraction ligated was 0.748. With A36T G38C the fraction ligated was 0.833. Work on A36T G38T yielded a fraction ligated of 0.834. In the case of A36T G38A, the fraction ligated is reported as 0.849. In the case of T35G T49G, the fraction ligated is reported as 0.778. T35G T49A gave a fraction ligated of 0.748. T35G T49C was tested, and the fraction ligated was 0.727. With A36G C42T the fraction ligated was 0.849. A36G C42G gave a fraction ligated of 0.844. Work on A36G C42A yielded a fraction ligated of 0.836. Variant T35C A37G has a fraction ligated of 0.881. T35C A37T was tested, and the fraction ligated was 0.847. In the case of T35C A37C, the fraction ligated is reported as 0.845. Variant T35G A39T has a fraction ligated of 0.836. T35G A39G was tested, and the fraction ligated was 0.799. Work on T35G A39C yielded a fraction ligated of 0.816. Variant T35G T43C has a fraction ligated of 0.807. For T35G T43A, the fraction ligated was 0.819. Work on T35G T43G yielded a fraction ligated of 0.801. Variant A36T C40T has a fraction ligated of 0.83. A36T C40A showed a fraction ligated of 0.823. In the case of A36T C40G, the fraction ligated is reported as 0.824. Work on T35G T44G yielded a fraction ligated of 0.851. Work on T35G T44A yielded a fraction ligated of 0.843. Variant T35G T44C has a fraction ligated of 0.854. Variant A36G T49A has a fraction ligated of 0.725. Variant A36G T49G has a fraction ligated of 0.761. Work on A36G T49C yielded a fraction ligated of 0.4. T35A A39G was tested, and the fraction ligated was 0.851. T35A A39T gave a fraction ligated of 0.838. With T35A A39C the fraction ligated was 0.828. For T35C A57T, the fraction ligated was 0.825. Work on T35C A57C yielded a fraction ligated of 0.813. With T35C A57G the fraction ligated was 0.822. In the case of A36G A37C, the fraction ligated is reported as 0.835. With A36G A37G the fraction ligated was 0.864. Work on A36G A37T yielded a fraction ligated of 0.872. With A37C A39T the fraction ligated was 0.807. A37C A39C showed a fraction ligated of 0.782. In the case of A37C A39G, the fraction ligated is reported as 0.833. With A36C A39T the fraction ligated was 0.802. Work on A36C A39G yielded a fraction ligated of 0.826. A36C A39C gave a fraction ligated of 0.803. In the case of A36C C42T, the fraction ligated is reported as 0.889. For A36C C42A, the fraction ligated was 0.852. A36C C42G gave a fraction ligated of 0.839. In the case of A36G G55A, the fraction ligated is reported as 0.867. A36G G55T showed a fraction ligated of 0.809. In the case of A36G G55C, the fraction ligated is reported as 0.773. With T35C G46C the fraction ligated was 0.792. Variant T35C G46T has a fraction ligated of 0.778. T35C G46A gave a fraction ligated of 0.829. T35G A48C showed a fraction ligated of 0.755. T35G A48T was tested, and the fraction ligated was 0.789. Variant T35G A48G has a fraction ligated of 0.79.
